Assay results taken from the DeepSol protein solubility set.

Assay: soluble on expression in E. coli; label from the status in PepcDB or PDB records

| Sequence | soluble on expression in E. coli |
| --- | --- |
| MSLAPSNSLEICGDGVKNPTTFTRAQLEDMPQYQQVYSSINTWPSKKWYVGKGVHLSELLSLVGIKDDARLLKFTSQDGYTMTLTVKELLVDKRYYFPHFNDNKIGDGEGNIAGSSQGAELVEPIIALISVEGSNNPNYMNDLNTLVLMMGQRAVTEQTGNAFVKYLNKIEVLTSEVPKWDSPQANPGSGEVSAGTMIALSTARMDDDKIYYTTDGSTPNLNSPIYNWIAKRWWSARADILGTYNHPIGPINENTTIKAITIGPGKENSDVATFTYTVPVSKPASETSIVAPNEATNYPDQALEKPLQSEPKATLTDVQNHWAQKNINELIASGIAGGYPDSSFRPDNTITRAEFATMLVKAFNLQNQGGKVFADSEQHWAKEYISRATASGVVSGYDAENFGPDKLITREQMAVMISKAAKLVLKAEAMHFADSAGISEWAKEAVLAANQSGIVKGYPDNTIRPQGSATRAEAVTVIVNALTLKEGHHHHHH | soluble |
| MFHCPLCQHAAHARTSRYITDTTKERYHQCQNVNCSATFITYESVQRYIVKPGEVHVVRPHPLPSGQQIMWM | soluble |
| MAKVSLEKDRIKFLLVEGVHQSAVDNLRAAGYSNIEYHKGALDAESLKASIRDAHFIGIRSRTHLSEDVFAAAEKLVAVGCFCIGTNQVDLKAATKRGVPVFNAPFSNTRSVAEMVLGELLLMFRGIPSANAKAHRGEWNKLAVGSFEARGKKLGIIGYGHIGTQLGILAESIGMKVFFYDIENKLSLGNAQQVRQLSDLLNMSDVVSLHVPENHTTKNMIGAEQLAQMKPGALLINASRGTVVDIPALCDALSSNHLSGAAIDVFPEEPATNKDPFNSPLCEFDNVLLTPHIGGSTQEAQENIGDEVAGKLAKYSDNGSTLSAVNFPEVSLPAHGDNTRRLLHIHENRPGILTSINTIFAEQNVNIAAQYLQTSADIGYVVIDVETDDADNAEKALQAMKAIPGTIRARLLY | not soluble |
| MGSDKIHHHHHHMADMTDQLPEVRKSHPYVMYEMMKDIPNGIDRTLSSMQNADLSFIGDDLIFLGNGTAYHSAYVGSQILDRVSKRHAVVQAYEYLNYMQSNAATIAISHTGKTKSTVDAVIKARKTAKTAGITHYADSPLYNSVDYPIAIADEDKSLCNTKAFFNNAFASLYIADYYGNLSYDMKNLRSEIAKHVGKDDPEMRSAAEELDQIDDIFVLGSGFNFPVAREAAQKIKEATHIHAEGIEFEEFNHGCTAVMDENTLVILIEGEKDRARGDQIARASRYVGSKTLAINGVGDISVYNDPQDDLSAAFLNTLDLYYLAYYLAVRRNINPDMLRFEDRRYRDYDSVVFPPGEH | not soluble |
| MSVKISGKDYAGMYGPTKGDRVRLADTDLIIEIEEDYTVYGDECKFGGGKSIRDGMGQSPSAARDDKVLDLVITNAIIFDTWGIVKGDIGIKDGKIAGIGKAGNPKVMSGVSEDLIIGASTEVITGEGLIVTPGGIDTHIHFICPQQIETALFSGITTMIGGGTGPADGTNATTCTPGAFNIRKMLEAAEDFPVNLGFLGKGNASFETPLIEQIEAGAIGLKLHEDWGTTPKAIDTCLKVADLFDVQVAIHTDTLNEAGFVENTIAAIAGRTIHTYHTEGAGGGHAPDIIKIASRMNVLPSSTNPTMPFTVNTLDEHLDMLMVCHHLDSKVKEDVAFADSRIRPETIAAEDILHDMGVFSMMSSDSQAMGRVGEVIIRTWQTAHKMKLQRGALPGEKSGCDNIRAKRYLAKYTINPAITHGISQYVGSLEKGKIADLVLWKPAMFGVKPEMIIKGGFIIAGRMGDANASIPTPQPVIYKNMFGAFGKAKYGTCVTFVSKASLENGVVEKMGLQRKVLPVQGCRNISKKYMVHNNATPEIEVDPETYEVKVDGEIITCEPLKVLPMAQRYFLF | not soluble |
| MGSDKIHHHHHHVFIGIETTDPEGLKETGKVQNLREDPLTAVRRIYAHGIDVLGGFIIGFDHDTMATFEHQYRFITDAGIQSAMIGLLMALPRTPLHERMQREGRLLPLDGHADNTCLTTNIAPRSMNIDAMVAAYQELYRRLLTGPEIGRRIRNKMKYLQAPVYGSGYSMGQRAGILARLMVRGIGAGGLSTLVAFLRSFPFLTPSRIPMVISDWIIGLSMKAFAETSLLGRSTQGLNNAATGISTGLRDP | not soluble |
| MGSDKIHHHHHHMEINGHEIQFKDNAVFLEENKILILADVHVGMEEFIRRNGVLFPLNEKKELLKRLKNLIVEFKPEKLVFLGDFLHHFQKVPYKVYETIRELNSLLKNYEIIVIRGNHDIMLEYILKENTNFKILDYLLENKILMIHGDKKFDIDFNFDLLIMGHEHPVLEINKQRFPSYLEIVQNDFKILVAPAFSNIASGVKINELESNFMSPYLKKVKKEDIFPIIIGEEVLKFPDLSKIEKFL | not soluble |
| QGMRAFLRVVETGNFTRASASLNMPKATVTNLIQGLEAHLRTKLLNRTTRRVLVTPDGALYYERAARLLSDLDELDGSLSTAQSLPKGRLRVETASAFANLVIIPALPEFHKKYPDIQIDLGVSDRTIDYLAENVDCAIRAGTLTDQSLIARRITEMKFVACASRDFLERHPVPQHPSDLEKNCYVVGYFLPKTGQQMPFHFRRGNEEIEVSGRYTMAANESTTYLAAARAGLGVIQAPLFMVREDLRNGTMVPVLPDWQVEPMPIYLVYPPNRHLSSRLRVFADWVVKVMAQSQNGEGS | soluble |
| MPGLPEVAPGDDLAKLIAAVEPGLVDGDVLLVTSKIVSKAEGRIVRADDREAAIDAETVRVVARRGALRIVENRQGLVMAAAGVDASNTPSGTVLLLPEDPDASARAIRDGLRDTLGVDVGVVVTDTFGRPWRTGLTDVAIGAAGVRVLDDLRGGTDAYGNPLSATVVATADELAAAGDLVKGKAAGLPVAVVRGLPHVIAGDDEAGARAMVRGGRDDMFRLGTSEAVREAVTQRRTVRAFTDEPVDPGAVRRAVAAAVTAPAPHHTTPWRFVLLESAESRTRLLDAMRDAWIADLRGDRKTEESIAKRVRRGDVLRNAPYLVVPCMVMDGSHSYGDARRDAAEREMFVVATGAGVQNFLVALAGERLGSAWVSSTMFCRDVVRRALGLPESWEPMGAVAVGHAAEEPRDRPARDAGAFIEVRLEHHHHHH | soluble |
| MRQGGIYQTKDANKGPVTVPPLRTKTPPPPPPPVRRHEIYEQHKRYTSAPNLQSAVIRIQDDKPRSIMKRNDLVRREQMLYPTVDTQVVKSVVKKPTVTETVQRFEETRRTEEVERRVQRREKKERRSRHHSSSRHHSGWEGHTGGYQEYRQGAITSSLPRRQIIREADRAMTEEEMNKVVREAYAAADEARKDSRHRSSSLSRGGHGGGGQETYYRQETTRRQQHNNYDDNFNRGIAHARYGSLSDSLRRGELQYVPNGEVRQSFYRDGSNGGQRMHKSYSTRDVFTGDGYDDRRSVSSFRRGSQQQVSPFVEFPPTLPRRGGGGDYRREEDAYFRPVSKSRSYADWDDAGRAGMGREVRRYDDDMSRLEAEFRDSLLMPMPAGNMNERDHRTEQLPGGYETFNKERHANSGRRSGRDGKPVDFNEATQEYNYKREQTLNDDRRRR | not soluble |
| MDRLDRKILYLLQENATLSVADIAKKVGLSTTPCWRRIQKLEEDGVIQRRVAVLSPEKVNAHVTVFVSIRTNTHSQEWLKRFSKIVQEFREVIEFYRMSGDIDYLLRVVVPNIEAYDLFYKKLIAKIDIRDVSSSFAMEQIKYTTELPLNYIKLHDKTSEQNS | not soluble |
| MSHTVAGGGSGDHSHQVRVKAYYRGDIMITHFEPSISFEGLCNEVRDMCSFDNEQLFTMKWIDEEGDPCTVSSQLELEEAFRLYELNKDSELLIHVFPCVPERPGMPCPGEDKSIYRRGARRWRKLYCANGHTFQAKRFNRRAHCAICTDRIWGLGRQGYKCINCKLLVHKKCHKLVTIECGRHSLPQEPVMPMDQSSMHSDHAQTVIPYNPSSHESLDQVGEEKEAMNTRESGKASSSLGLQDFDLLRVIGRGSYAKVLLVRLKKTDRIYAMKVVKKELVNDDEDIDWVQTEKHVFEQASNHPFLVGLHSCFQTESRLFFVIEYVNGGDLMFHMQRQRKLPEEHARFYSAEISLALNYLHERGIIYRDLKLDNVLLDSEGHIKLTDYGMCKEGLRPGDTTSTFCGTPNYIAPEILRGEDYGFSVDWWALGVLMFEMMAGRSPFDIVGSSDNPDQNTEDYLFQVILEKQIRIPRSMSVKAASVLKSFLNKDPKERLGCLPQTGFADIQGHPFFRNVDWDMMEQKQVVPPFKPNISGEFGLDNFDSQFTNERVQLTPDDDDIVRKIDQSEFEGFEYINPLLMSAEECV | not soluble |
| MAHHHHHHMNFIKAEEKDKCAEEQGVKLFYLKSCKEKEYELHMDVCQAIVEDCPLLEVYVVSRGDGSSESGAFELYDNGQLIKKFTNCNVSTVTSFIRKYAQKGGSSPMEATQSGELNSTGKTDTVKKIEHLIGSNKIILFMKGSKTFPQCKFSNAVVFMLNSCKVKYTTYDILQDEDVRSELKIYSNWPTYPQLYINAELIGGHDIIKSMYDSGELRDVVPQDCFEG | soluble |
| KVGISMFNILQSTQLSSNTFDFWLEAPRIATHAQAGQFVILRIDEKGERIPLTIAETNPQAGSIRIIFQVIGKTTAALSQLKTSDSLLDITGPLGMPTEVKQYGTVMVVGGGVGIAAIYPIIKALKEAGNRVITILGARTAELVLLQEECRRYSDELIITTDDGSLGKKGLVTEAMEEVIARESVACSWAIGPSIMMKFCTLTAEKHQLPIYVSLNPIMIDGTGMCGGCRVTVDGTMKFACVDGPEFKGNEVNWDEFINRMKQYQEEEAVCFTDRLKEQVEKNG | not soluble |
| LPIQARPRRNRKNRAVRQLVQENLVKPSSLIYPLFVHDEETSVPIPSMPGQSRLSMEDLLKEVGEARSYGIKAFMLFPKVDDELKSVMAEESYNPDGLLPRAIMALKEAFPDVLLLADVALDPYSSMGHDGVVDEQSGKIVNDLTVHQLCKQAITLARAGADMVCPSDMMDGRVSAIRESLDMEGCTDTSILAYSCKYASSFYGPFRDALDSHMVGGTDKKTYQMDPSNSREAEREAEADASEGADMLMVKPGLPYLDVLAKIREKSKLPMVAYHVSGEYAMLKAAAEKGYISEKDTVLEVLKSFRRAGADAVATYYAKEAAKWMVEDMKGTQKFTEPCY | soluble |
| MGSDKIHHHHHHMTWVGVVDAGRHVEATMKLELGFDPRDLLRKLGPGNSIAKFAKNQTIFAQGDEADSVYLLLQGRIKVVVLSAQGKEAATGMVAPGQFFGDGCLVGEATRTTTTIAMQDCLVAAIPSTRLIETLRAQPDFAELFVRHLLLRNRRIEEDLLDQLLNCSEKRLARLLLRLADFEEGGEPQPIAPHISQETLAEMIGTTRSRVSYFMNKFRKLGLISYDRTIEVHPGRLSAVLHDRAEARG | not soluble |
| MGSDKIHHHHHHMNKEIPKFLENTQIEKFICNELDYKKEILRELKELLENFNTINVKNSINSKYIALLMLSIFNAFHFKKELNKNLVNSLDAIIFAIKSIGTDESFIVLFKAFLHANVEVSSNEDAPGEIIIKLLGNIKSPIEFNIAAKNQNKLKKITAKHAGFKKALTSNYMPKDYKNSVYEFIKILIPIGRIVKIIDKKQIEIKGTRTKKFSTADHFF | not soluble |
| MGSDKIHHHHHHMKKKIIHTLVYNYEIPVSLEEHLICLKPRSNSFQELSNFDLQIFPSPYSIFPLLSDNGDDIFKLLFTGSTNSLKIKTESDIETNIHPDLYQLKNDYDLSLPLKIESNDSLIGFIKGWFPNGQHDPAAIRIAQEALAGINNNVLDFLYHLIELIKDRVKYTPRHIGPAWTSGRTLSERVGSCRDLAILLMETCRCVGIPSRFVSGYQFMDQAPDKYELHAWTEVYIPGFGWRGFDPSGCGLINHNYVALASSSKSELVAPLRGSFVGPSNLKSELEWKIDIT | not soluble |
| MSLNKKVDIRHIFISSQERGKEEAKKLADEIYNRLKNNEDFETLAKQYSDDEKTKESGGVITELRAGFNEAVFDNAVFTAEAGQLLEPIEVARGYEIVYVDKVTDFYRTRDEYAELLTVDKFMQSDAYKEWFEEYKKNYDIEITDPAMKAFRLFREKQYNEAGALYEELYKSEKDAYYIEMACEAYKLAENWAGLIEAGKLAVKENPDFVNYYLYQAEGEFKVGDANKAKELLKEAEKKAGDNTYFLDLIRKMYESQGLAEDVERIDRKFQEISEKLKGEGHHHHHH | soluble |
